Here are results for 14 proteins from patent US20250051821.

Substitutions are numbered along the chain they refer to.

This data set concerns the target T1, IFF05588.
T1 chain: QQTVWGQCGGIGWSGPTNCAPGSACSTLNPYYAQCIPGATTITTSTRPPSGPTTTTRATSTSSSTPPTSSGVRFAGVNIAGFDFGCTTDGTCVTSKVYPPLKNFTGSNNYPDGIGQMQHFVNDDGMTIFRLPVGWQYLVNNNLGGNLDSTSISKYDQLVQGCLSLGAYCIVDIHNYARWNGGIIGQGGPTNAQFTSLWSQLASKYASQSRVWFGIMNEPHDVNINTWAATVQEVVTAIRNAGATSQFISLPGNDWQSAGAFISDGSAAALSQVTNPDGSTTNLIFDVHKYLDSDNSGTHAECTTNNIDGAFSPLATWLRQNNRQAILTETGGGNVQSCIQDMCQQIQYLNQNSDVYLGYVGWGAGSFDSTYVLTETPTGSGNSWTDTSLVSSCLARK

B1: IFF21380 (protein)
chain: QQLDKPALTNDLDYLLEGNVNNLPSNGGPYWGKWEAGLMPADCKSIAESQDLDPTDFEVWDIFFDDCQDGWSFCRHVDSADSFETLVDTFGRIPVRMRSWIRHILTIPGDNWAFNSNGNIAFSGTTSANLDVALHETGHSLDLLGAYGSEALSSTQEWLDAYDADSNVPDNYARSNQVENVAQNTVVGIYDKVVPGGFPGVQPNYQNIENQYTLLQDKAGDQIIPGGTCDRHLENSETVSASGSSKKARDSVNKKSRAVAHDPAFKGTYTNIVKDFVPFNTQDYHH
Turning to B1, the Relative late peak area (centered, scaled, averaged over 5, 10 and 15 min) is -0.71; the Relative late peak area (centered, scaled, averaged over doses, 24 h; sample diluted 1-fold) is -0.02; the Relative late peak area (reverse phase chromatography, 24 h) worked out at 0.61.

B2: IFF21367 (protein)
chain: QNLNKPVLFTDGLSPHVDSVFFQHLTPTQSTWDQWGWGWIPQACLSVVQGTQFSPYDIEVYNVHYTDCASAVVMCRHNQAQMSIINMIDAFGRVPIHDRQWTQHILALPASSCSAGTGGAVTTFYGPCYIPSVFVHELTHTLDAYVNDQTGSTGSVHVYSTTSSYLNSVNQDSCVPDGYANTSPQEDYAQTSVLALYEKVNPGGLDPIGNWRCLVNAKNNLDSIIGQELTPGGSCTHRWADSAIVCMGPAAGCASSKRGFSTRRGARVAGPKPEPANKKGDPLVSNLTPDLTSAVNAKIDDFSHLVSNHTASIEATIRINAWNKAAGKKTVPVPTA
Regarding B2, the Relative late peak area (centered, scaled, averaged over 5, 10 and 15 min) was -0.67; the Relative late peak area (centered, scaled, averaged over doses, 24 h; sample diluted 1-fold) was found to be 0.19.

B3: IFF21378 (protein)
chain: LDKPALTPDLDYLLDGNTANLPQNGGAHWGKWEDGLMPEDCKSIAEGQDLNPADFEVYDVFYDDCQDAWSFCRHKDSPEDLETLVNTFGRVPVRMRSWVRHVLSIPGNNWAFNSNGNIALSGTTTHNLDVCLHETGHSLDLLGAYVDGALSSTQEWEDAYNKDSAVPDNYARTNQVENVAQNTVVGIYDKVVPGGFPGVQSESQKIENQYKLLQDKAGEQILPGGTCDRHLQNSATVSIKSSSKRENKVVKAREAHDSALKGTYTNIVKEFTPFNTKDFHEEH
In the case of B3, the Relative late peak area (centered, scaled, averaged over 5, 10 and 15 min) was -0.6; the Relative late peak area (centered, scaled, averaged over doses, 24 h; sample diluted 1-fold) worked out at 0.1; the Relative late peak area (reverse phase chromatography, 24 h) turned out to be 0.52.

B4: IFF21335 (protein)
chain: TLDKPVIQPNFPGNGLASLGQGLLDNLAPTHSTWDDWGAGWIPQDCKTLVEGAGFSASDVIPFNIHYDDCAQTWTFCRHKDSPLSEVQILDLFGRLPVRMRSFVRHLVFIPGNKSAGSSGDNVLMTGPVDITVYAHEIGHSLDSHAFDPSYGVPFSTGNVWISNYNLDSAVTDPYAQTSQQENFAQETVVSLYDKVVPGGIGTIQSNWQAIFHQYATLEGYIGDVIIPGGTCTHRLTDSPAVPMSGSAKLRRGLGPKPHVALSPEVEEIEAIPMKSSITMTSFDEAGKPNGTYVINL
Consider B4, for which the Relative late peak area (centered, scaled, averaged over 5, 10 and 15 min) was 0.67; the Relative late peak area (centered, scaled, averaged over doses, 24 h; sample diluted 10-fold) came to 0.3; the Relative late peak area (reverse phase chromatography, 24 h) amounted to 0.66.

B5: IFF21352 (protein)
chain: NLNKPVIQPNFPSLAPGLMSHLSPTHSTWDDWGAGWIPRDCKSMVQGAGFSPNDIIPFNIHYDDCGQTWTFCRHKKSPLSELQILDMFGRLPVRMRSFIRHMVFVPGTRSAGSNGDNILVVGDGDITLFAHEIGHSLDSHAFDPSYGVPFSTGNVWVSNYNLDSAVSDSYAQSSQQENFAQETVISLFDKVVPGGIGTIQPNWRAIFHQYATLQGYIGNVIIPGGTCTHRLTDSPPVPMSGSAKSRRGLGLKPDVSLTPEVKEIEAIPMESSITMTSFNEQGKPSGTYVIHLK
As to B5, the Relative late peak area (centered, scaled, averaged over 5, 10 and 15 min) was -0.63; the Relative late peak area (centered, scaled, averaged over doses, 24 h; sample diluted 1-fold) was 0.42.

B6: IFF21338 (protein)
chain: NLNKPVITPNFPGNGLASLGPGLMNNLAPTHSTWDDWGAGWIPSDCKSMVQGAGFSPNDIIPFNIHYDDCAQTWTFCRHKNSPLSEIQILDIFGRLPVRMRQFVRHLVFVPGNKSAGSNGDNVLMVGDVDVTVFAHEIGHSLDSHAFDPSYGVPFSTGNVWVSNYNLDSAVPDPYAQSSQQENFAQQTVVSLYDKVVPGGIGTIQPNWQAIFHQYATLEGYIGNVIIPGGTCTHRLTDSAPVTMSGSKKSRRALGPKPKVSLSPEVKEIEAIPMESSITMTSFDEHGKPNGTYVIHL
As for B6, the Relative late peak area (centered, scaled, averaged over 5, 10 and 15 min) is 1.11; the Relative late peak area (centered, scaled, averaged over doses, 24 h; sample diluted 10-fold) was 0.59; the Relative late peak area (reverse phase chromatography, 24 h) was 0.6.

B7: IFF21340 (protein)
chain: B6 chain with S44A, T73S, L192I, E265K, I295V
B7: the Relative late peak area (centered, scaled, averaged over 5, 10 and 15 min) was -0.31; the Relative late peak area (centered, scaled, averaged over doses, 24 h; sample diluted 2-fold) was 0.37; the Relative late peak area (reverse phase chromatography, 24 h) was 0.33.

B8: IFF21336 (protein)
chain: B6 chain with P21Q, N25D, N26H, S44Q, L192I, E265K, I295V
In the case of B8, the Relative late peak area (centered, scaled, averaged over 5, 10 and 15 min) is -0.34; the Relative late peak area (centered, scaled, averaged over doses, 24 h; sample diluted 2-fold) amounted to 0.36.

B9: IFF21339 (protein)
chain: B6 chain with P149S, E265K
On to B9, for which the Relative late peak area (centered, scaled, averaged over 5, 10 and 15 min) was -0.05; the Relative late peak area (centered, scaled, averaged over doses, 24 h; sample diluted 2-fold) is 0.53.

B10: IFF21337 (protein)
chain: B6 chain with P21Q, N25D, N26H, T73S, I87V, Q187E, V196A, N224D, E265K, I295V
Regarding B10, the Relative late peak area (centered, scaled, averaged over 5, 10 and 15 min) was 0.9; the Relative late peak area (centered, scaled, averaged over doses, 24 h; sample diluted 10-fold) worked out at 0.52.

B11: IFF21365 (protein)
chain: DDTLSKPALTDNLDYLLDGNVASLPSNGGPYWGKWEDGLMPADCKSIAEDQGLNPTDFEVWDIFFDDCQDGWSFCRHKDSADSFETLVDTFGRVPVRMRSWVRHVLTIPGDNWAFNSNGNICFSGTTSQNLDVALHETGHSLDLLGAYGDGALSSSQEWLDAYNADSNVPDNYARSNQVENVAQNTVVAVYDKNVPGGFPGVQTDYAKIQNQYTLVEDKAGDQIVPGGTCDRHLENSETVPMSGSSAKRDIRIKGRAVGAGAVTHDWKFKGTYSNIVTDFEPFNSKDFHH
As for B11, the Relative late peak area (centered, scaled, averaged over 5, 10 and 15 min) came to 1.04; the Relative late peak area (centered, scaled, averaged over doses, 24 h; sample diluted 10-fold) is 0.38; the Relative late peak area (reverse phase chromatography, 24 h) was 0.61.

B12: IFF21375 (protein)
chain: QTLDKPALTPNLDYLLQGNTDNLQPAASHYGKWEDGWIPADCKSIAEDQQLNPTDFEVYDVFYGDCGDAWSFCRHKSSSDSIDTIIDTFGRVPVRMRSWVRHVLTIPGDNWAFNSNGNIAFSGTTSQNLDVALHETGHSLDLLGAYGETLSSSQTWLDNYNQDPNVPDEYARSNQVENVAQNTVVGIYDKVVPGGFGSVQPNWGNIFHQYSTLQSMAKDTIIPGGTCDRHLANSETVSMASTQSNATRMARIRRVKPSHSFRQTYDNIVEGFTPFSTKDTCHFSWA
For the protein B12, the Relative late peak area (centered, scaled, averaged over 5, 10 and 15 min) was 1.08; the Relative late peak area (centered, scaled, averaged over doses, 24 h; sample diluted 10-fold) stood at 0.42; the Relative late peak area (reverse phase chromatography, 24 h) was determined as 0.63.

B13: IFF21363 (protein)
chain: QLDKPVIDPEFPSGALDQGLNDHLRAPGSSWDAWEEGWIPEDCKNMIEGTEFSVQDITPFNIHYDDCEDPWVFCRHKDSPLSEDYIVDAFGKMPVRFRSFVRHMLFVPGTESAGSSGDNVQMNGDLPITVFIHETAHSFDGHHGLPDIEGGFSASQAWLDAYNADSAVTDDYGQTSQAENFAQQTVVALFDSNVPDGVASIQPSWQSIENQFRLIQDRAADILRPDGTCTSRLENSAPVEKGGSARLRPSASTKPDVSLKGKIKVIEPVPMGAEMEMAQYDASGKVVGTKVVKVGGRE
Turning to B13, the Relative late peak area (centered, scaled, averaged over 5, 10 and 15 min) was -0.43; the Relative late peak area (centered, scaled, averaged over doses, 24 h; sample diluted 2-fold) was -0.13; the Relative late peak area (reverse phase chromatography, 24 h) stood at 0.3.

B14: IFF21349 (protein)
chain: VLDKPVIQPNFPGGGLDSLSQGLLDNLAPTQSTWDEWGAGWIPQDCKTLAEGSGFSALDITTFNIYYTDCADAWVFCRHKDAPLSEIDMIDLFGRMPVRMRDFVRHIIAVPGNPSAGSSGDNIQMNGGLPITVFVHETGHSLDSHAFSEPFSLSQAWIDAYNQDSAVPDSYAQTSQQENFAQETVVALYDKVVPGGVGTIQPNWNAIFHAYATLQGYIGDVIIPGGTCVNRLTNSAPVPQSNSAKVRIASEKPDVTLRGNVTVLESIPMGSSIELTHFDAEGKPTGRSTVNLG
In the case of B14, the Relative late peak area (centered, scaled, averaged over 5, 10 and 15 min) was 0.02; the Relative late peak area (centered, scaled, averaged over doses, 24 h; sample diluted 2-fold) amounted to 0.56.
